From patent US20180282422A1 (DINGFU BIOTARGET, published 2018)

T1: hOX40-EGFP on HEK293 cells (human, UniProt P43489 29-277)
T1 construct: EGFP fusion on transfected HEK293 cells; not shown: enhanced green fluorescent protein (EGFP), UniProt C5MKY7
T1 sequence (looked up): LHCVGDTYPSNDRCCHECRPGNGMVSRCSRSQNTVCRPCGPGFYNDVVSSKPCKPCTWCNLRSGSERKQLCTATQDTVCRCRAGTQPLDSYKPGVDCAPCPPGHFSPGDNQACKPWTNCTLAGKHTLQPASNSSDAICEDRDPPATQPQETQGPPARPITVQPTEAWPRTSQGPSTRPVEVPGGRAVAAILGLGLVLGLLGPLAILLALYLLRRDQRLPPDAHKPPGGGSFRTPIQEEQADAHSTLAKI

T2: hGITR-EGFP on HEK293 cells (human, UniProt Q9Y5U5 26-241)
T2 construct: EGFP fusion on transfected HEK293 cells; not shown: enhanced green fluorescent protein (EGFP), UniProt C5MKY7
T2 sequence (looked up): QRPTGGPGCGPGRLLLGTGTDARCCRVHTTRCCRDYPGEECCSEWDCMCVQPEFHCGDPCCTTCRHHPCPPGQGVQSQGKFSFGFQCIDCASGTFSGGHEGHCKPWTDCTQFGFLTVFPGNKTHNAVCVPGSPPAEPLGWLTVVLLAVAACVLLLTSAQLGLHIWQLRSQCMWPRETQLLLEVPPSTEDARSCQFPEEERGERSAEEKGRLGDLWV

T3: hCD27-EGFP on HEK293 cells (human, UniProt P26842 20-260)
T3 construct: EGFP fusion on transfected HEK293 cells; not shown: enhanced green fluorescent protein (EGFP), UniProt C5MKY7
T3 sequence (looked up): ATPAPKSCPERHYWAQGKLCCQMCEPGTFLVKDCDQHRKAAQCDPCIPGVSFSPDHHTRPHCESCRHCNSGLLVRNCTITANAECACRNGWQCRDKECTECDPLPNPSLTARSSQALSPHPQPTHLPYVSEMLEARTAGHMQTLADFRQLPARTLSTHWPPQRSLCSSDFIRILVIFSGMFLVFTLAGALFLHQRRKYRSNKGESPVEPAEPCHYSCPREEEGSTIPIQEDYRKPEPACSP

T4: RhCD137-muFc (rhesus monkey; mouse)
T4 construct: Residues 1-186 as stated; no signal peptide cleavage site is stated; also called Rhesus monkey CD137; CD137 of rhesus monkey
T4 chain: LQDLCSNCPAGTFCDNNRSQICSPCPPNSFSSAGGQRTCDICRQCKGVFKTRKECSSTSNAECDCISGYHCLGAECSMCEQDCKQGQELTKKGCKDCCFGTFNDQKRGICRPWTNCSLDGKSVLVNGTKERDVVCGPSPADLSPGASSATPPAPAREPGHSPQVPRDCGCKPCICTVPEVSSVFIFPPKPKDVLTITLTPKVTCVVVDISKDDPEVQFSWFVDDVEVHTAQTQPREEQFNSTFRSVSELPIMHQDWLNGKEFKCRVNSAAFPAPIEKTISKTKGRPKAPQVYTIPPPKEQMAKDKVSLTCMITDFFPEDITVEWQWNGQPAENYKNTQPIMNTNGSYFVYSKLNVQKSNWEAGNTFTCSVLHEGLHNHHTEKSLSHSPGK


How the values were obtained:
[1] = target: T5, hCD137-muFc (human; mouse, UniProt Q07011 24-186); assay: SPR, BIAcore X100; scFv captured by anti-hFc on a CM5 chip, CD137-muFc as analyte 1000-31.6 nM; 1:1 Langmuir model
T5 construct: range 1-186; It states no cleavage site; Made in HEK293 and purified on protein A; also called recombinant human CD137; not shown: mouse IgG1-Fc (muFc) domain, residues 98-324 of UniProt P01868
Method: (§1) The binding kinetics of anti-hCD137 C2scFv and C14 scFv antibodies against the recombinant human CD137 were measured by surface plasmon resonance (SPR) process using a BIAcore X100 instrument. Anti-hFc antibody (not cross-identifying mouse Fc) was conjugated on CM5 chip, C2 scFv or C14 scFv was diluted to 5 nM with running buffer and captured as a ligand by the antibody on the chip. CD137-muFc was diluted with running buffer to 1000-31.6 nM, diluted twice to a total of 6 concentrations. The injection time was 180 s, the dissociation time was 1800 s and the regeneration time was 60 s. The running buffer was HBS-EP+, and the regeneration buffer was 10 mM glycine-HCl (pH 2.0). The association rate (Kₒₙ) and the dissociation rate (Koff) were calculated using a simple one-to-one Languir binding model (BIAcore Evaluation Software version 3.2). The equilibrium dissociation constant (KD) was calculated as the ratio of Koff/Kₒₙ.

[2] = target: T1, hOX40-EGFP on HEK293 cells; assay: flow cytometry on transfected HEK293 cells, anti-hIg-PE
Method: (§2) HEK293 cells expressing hCD137-EGFP, hOX40-EGFP, hCD27-EGFP and hGITR-EGFP constructed in Example 1 were resuspended in 0.5% PBS-BSA Buffer and anti-hCD137 C2scFv and C14 scFv protein were added, the negative control was hIgG Fe protein, then the mixture was incubated on ice for 20 min. After washing, secondary antibody anti-hIg-PE (eBioscience) was added and was incubated on ice for 20 min. After washing, the cells were resuspended in 500 μL of 0.5% PBS-BSA Buffer and detected by flow cytometry.
(§3) HEK293 cells expressing hCD137-EGFP, hOX40-EGFP, hCD27-EGFP and hGITR-EGFP constructed in Example 1 were resuspended in 0.5% PBS-BSA Buffer and anti-hCD137 C14 mAb protein was added, the negative control was hIgG Fc protein, then the mixture was incubated on ice for 20 min. After washing, a secondary antibody anti-hlg-PE (eBioscience) was added and incubated on ice for 20 min. After washing, the cells were resuspended in 500 μL 0.5% PBS-BSA Buffer and detected by flow cytometry.

[3] = target: T2, hGITR-EGFP on HEK293 cells; assay: as above
Method: as §2, §3

[4] = target: T3, hCD27-EGFP on HEK293 cells; assay: as above
Method: as §2, §3

[5] = target: T4, RhCD137-muFc; assay: ELISA, RhCD137-muFc coated at 5 ug/mL, antibody titrated 3-fold, goat anti-hIgG-HRP, OD450-650
Method: RhCD137-muFc was diluted to 5 μg/mL 100 μL/well, with coating buffer (50 mM Na₂CO₃, NaHCO₃ pH 9.6), overnight at 4° C. After washing, the plates were blocked with 3% BSA-PBS for 1 h at 37° C. Anti-hCD137 14#mAbnew antibodies were respectively diluted from 2000 ng/mL and were diluted 3-fold, with the diluent (1% BSA-PBS) as a control, and incubated for 2 h at 37° C. Goat anti-hIgG-HRP conjugated was added and incubated for 1 h at 37° C. The soluble one-component TMB substrate developing solution was added, and the developing was performed in dark at room temperature for 5-10 min. 2N H₂SO₄ 50 μL/well was added to terminate the color development reaction. The OD_{450 nm-650 nm} values were read on MD Spectra Max Plus 384 microplate reader, and SoftMax Pro v5.4 was used for data processing and diagraph analysis, with the results shown in FIG. 8, in which it can be seen that anti-hCD137 14#mAb new may bind to CD137 of rhesus monkey.

[6] = target: T5, hCD137-muFc; assay: SPR, BIAcore X100; anti-hFc on a CM5 chip, CD137-muFc as analyte 100-3.16 nM; 1:1 Langmuir model
Method: as §1, with “antibody” for “C2scFv and C14 scFv antibodies”, “CD137-muFc” for “C2 scFv or C14 scFv”, “nM (C14Mab) or 100-3.16 nM (C14 Mab new),” for “nM,”

| Kd [1] [nM] | koff [1] [s⁻¹] | kon [1] [M⁻¹ s⁻¹] | binding result [2] | binding result [3] | binding result [4] | binding result [5] | Kd [6] [nM] | koff [6] [s⁻¹] | kon [6] [M⁻¹ s⁻¹] | Binder |
| --- | --- | --- | --- | --- | --- | --- | --- | --- | --- | --- |
| – | – | – | – | – | – | binds | 2.68 | 0.000907 | 338000 | anti-CD137 14#mAb new (antibody, V domains shown, L50 E to D, L93 T to I and L95 N to K against C14; IgG4 / lambda; also called C14 mAbnew; C14 Mab new; not shown: human IgG4 constant region, UniProt P01861 (same method as C14mAb); human lambda light chain constant region, UniProt A0M8Q6 (same method as C14mAb)) VH: QVQLQQSGPGLVKPSQTLSLTCAISGDSVSSNSAAWNWIRQSPSRGLEWLGRTYYRSKWYNDYAPSVESRITINPDTSKNQFSLQLSSVTPEDTAVYYCARDPPYVLSTFDIWGQGTMVTVSS VL: NFMLTQPPSVSESPGKTVTISCTRSSGNIASFYVQWFQQRPGSSPTTVIYDDDQRPSGVPDRFSGSIDRSSNSASLTISGLTTDDEADYYCQSYDINKVIFGGGTKLTVL |
| – | – | – | no binding | no binding | no binding | – | – | – | – | anti-hCD137 C14 mAb (antibody, human IgG4, V domains shown, domain: constant region; Human IgG4 / lambda antibody made in HEK293; also called anti-CD137 14#mAb; not shown: human immunoglobulin lambda light chain constant region, UniProt A0M8Q6) VH: QVQLQQSGPGLVKPSQTLSLTCAISGDSVSSNSAAWNWIRQSPSRGLEWLGRTYYRSKWYNDYAPSVESRITINPDTSKNQFSLQLSSVTPEDTAVYYCARDPPYVLSTFDIWGQGTMVTVSS VL: NFMLTQPPSVSESPGKTVTISCTRSSGNIASFYVQWFQQRPGSSPTTVIYEDDQRPSGVPDRFSGSIDRSSNSASLTISGLTTDDEADYYCQSYDTNNVIFGGGTKLTVL |

The remaining lines, values behind:

| Binder | Kd [1] [nM] | koff [1] [s⁻¹] | kon [1] [M⁻¹ s⁻¹] | binding result [2] | binding result [3] | binding result [4] | binding result [5] | Kd [6] [nM] | koff [6] [s⁻¹] | kon [6] [M⁻¹ s⁻¹] |
| --- | --- | --- | --- | --- | --- | --- | --- | --- | --- | --- |
| anti-hCD137 C14 scFv (scFv, The junction between scFv and Fc is not described; also called anti-CD137 14#ScFv; not shown: human IgG1-Fc domain, residues 104-330 of UniProt P01857) scFv: QVQLQQSGPGLVKPSQTLSLTCAISGDSVSSNSAAWNWIRQSPSRGLEWLGRTYYRSKWYNDYAPSVESRITINPDTSKNQFSLQLSSVTPEDTAVYYCARDPPYVLSTFDIWGQGTMVTVSSGGGGSGGGGSGGGGSNFMLTQPPSVSESPGKTVTISCTRSSGNIASFYVQWFQQRPGSSPTTVIYEDDQRPSGVPDRFSGSIDRSSNSASLTISGLTTDDEADYYCQSYDTNNVIFGGGTKLTVL | 23.8 | 0.000263 | 11200 | no binding | no binding | no binding | – | – | – | – |
| anti-hCD137 C2 scFv (scFv, The junction between scFv and Fc is not described; not shown: human IgG1-Fc domain, residues 104-330 of UniProt P01857) scFv: EVQLVESGGGLVQPGGSLRLSCAASGFTVSDYYMNWIRQAPGKGLEWVSYISSSASGSTIYYADSVKGRFTISRDNANNSLYLHMDSLRAEDTAIYFCARVVPAGSGWRWFDPWGQGTLVTVSSGGGGSGGGGSGGGGSQSVLIQPPSASGSPGQSVTISCTGISSDVGAYDYVSWYQQHPGKVPKLMIYEVSKRPSGVPDRFSGSKSGDTASLTVSGLQAEDEADYYCSSHAGSNNFYVFGTGTKLTVL | 11.6 | 0.000128 | 11000 | no binding | no binding | no binding | – | – | – | – |
